We go through two molecules from patent publication US20260125451A1 (JIANGSU HENGRUI PHARMACEUTICALS, published 2026).

The target in experiment [1] is T1, type I interferon (IFN) receptor subunit 1 (IFNAR1) (human, UniProt P17181 28-557).
T1 sequence (looked up): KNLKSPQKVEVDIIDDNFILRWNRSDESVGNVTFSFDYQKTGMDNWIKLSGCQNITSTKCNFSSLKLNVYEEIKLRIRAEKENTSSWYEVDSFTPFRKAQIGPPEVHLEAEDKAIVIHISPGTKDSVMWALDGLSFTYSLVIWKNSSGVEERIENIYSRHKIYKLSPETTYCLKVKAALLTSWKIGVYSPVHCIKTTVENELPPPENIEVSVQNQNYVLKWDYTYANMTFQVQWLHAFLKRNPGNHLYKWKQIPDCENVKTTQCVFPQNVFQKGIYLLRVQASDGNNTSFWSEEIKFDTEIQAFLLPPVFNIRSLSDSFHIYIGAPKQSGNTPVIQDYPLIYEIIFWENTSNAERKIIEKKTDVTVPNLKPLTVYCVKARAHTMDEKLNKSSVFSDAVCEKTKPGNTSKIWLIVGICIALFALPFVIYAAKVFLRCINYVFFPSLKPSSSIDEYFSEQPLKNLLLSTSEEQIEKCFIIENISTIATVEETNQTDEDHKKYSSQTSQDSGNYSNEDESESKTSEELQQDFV
Briefly: cell-based or functional assay.

Experiment [2] concerns the target T1, type I interferon (IFN) receptor …. Briefly: cell-based or functional assay. The source holds these as a separate data set.
The target of experiment [3] is T2, APRIL (Acro Biosystems, Cat: APL-H52D1) (UniProt O75888 115-250, limits assumed).
T2 construct: also called ARPIL; A proliferation-inducing ligand
T2 sequence (looked up): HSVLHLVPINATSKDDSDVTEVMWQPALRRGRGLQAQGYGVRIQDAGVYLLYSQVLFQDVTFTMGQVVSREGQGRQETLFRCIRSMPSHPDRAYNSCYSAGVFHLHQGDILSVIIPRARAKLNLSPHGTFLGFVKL
Briefly: ELISA, APRIL coated, anti-human Fc-HRP.

Experiment [4] concerns the target T2, APRIL (Acro Biosystems, Cat: APL-H52D1). Briefly: ELISA, APRIL coated, anti-human Fc-HRP, OD450. How it is done: The capabilities of fusion proteins B606401, B637302, B746201, and B805201 to bind to BAFF and APRIL were assessed by ELISA as follows:
BAFF (PeproTech, Cat: 310-13) or ARPIL (Acro Biosystems, Cat: APL-H52D1) was diluted to 1 μg/mL with PBS, and a 96-well plate was coated with the dilution overnight at 4° C. The plate was washed with PBST and blocked with Blocking Buffer (PBST containing 1% BSA) at 37° C. for 1 h. The plate was tapped. The test antibodies were diluted with Blocking Buffer. Incubation was performed at 37° C. for 1.5 h. The plate was washed with PBST. An HRP-mouse anti-human Fc antibody (GenScript, Cat: A01854-200) was diluted with Blocking Buffer. Incubation was performed at 37° C. for 40 min. The plate was washed with PBST. 100 μL of TMB substrate solution (Biopanda, Cat: TMB-S-003) was added, and color development was performed at 37° C. for 3 min. 100 μL of ELISA stop solution (Solarbio, Cat: C1058) was added. OD450 was measured.
The EC₅₀ value for the capability of B637302 to bind to APRIL decreased to 1/7 to ⅙ of that of telitacicept.
For orientation: An ELISA detects its analyte on a solid surface through an enzyme-linked reagent.

The target of experiment [5] is recombinant human BAFF (R&D cat: 7537-BF-025/CF) (human, UniProt Q9Y275 134-285, limits assumed). Briefly: cell-based or functional assay.
recombinant human BAFF (R&D cat: 7537-BF-025/CF), sequence (Q9Y275 134-285 limits assumed): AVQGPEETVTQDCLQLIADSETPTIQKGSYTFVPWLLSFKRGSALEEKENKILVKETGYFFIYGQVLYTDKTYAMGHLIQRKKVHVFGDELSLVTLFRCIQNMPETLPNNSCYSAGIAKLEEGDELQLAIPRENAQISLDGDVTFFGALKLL

B1: B746201 (other)
heavy: EVQLVQSGAEVKKPGESLKISCKGSGYIFTNYWIAWVRQMPGKGLESMGIIYPGDSDIRYSPSFQGQVTISADKSITTAYLQWSSLKASDTAMYYCARHDIEGFDYWGRGTLVTVSSASTKGPSVFPLAPSSKSTSGGTAALGCLVKDYFPEPVTVSWNSGALTSGVHTFPAVLQSSGLYSLSSVVTVPSSSLGTQTYICNVNHKPSNTKVDKRVEPKSCDKTHTCPPCPAPEFEGGPSVFLFPPKPKDTLMISRTPEVTCVVVDVSHEDPEVKFNWYVDGVEVHNAKTKPREEQYNSTYRVVSVLTVLHQDWLNGKEYKCKVSNKALPASIEKTISKAKGQPREPQVYTLPPSRDELTKNQVSLTCLVKGFYPSDIAVEWESNGQPENNYKTTPPVLDSDGSFFLYSKLTVDKSRWQQGNVFSCSVMHEALHNHYTQKSLSLSPGKGGGGSGGGGSGGGGSMLQMAGQCSQNEYFDSLLHACIPCQLRCSSNTPPLTCQRYCSTSCREEQGEFYDHLLRDCISCASICGQHPKQCAAFCE
light: EIVLTQSPGTLSLSPGERATLSCRASQSVSSSFFAWYQQKPGQAPRLLIYGASSRATGIPDRLSGSGSGTDFTLTITRLEPEDFAVYYCQQYDSSAITFGQGTRLEIKRTVAAPSVFIFPPSDEQLKSGTASVVCLLNNFYPREAKVQWKVDNALQSGNSQESVTEQDSKDSTYSLSSTLTLSKADYEKHKVYACEVTHQGLSSPVTKSFNRGEC
notes: Fusion protein of anifrolumab, TACI-19-16 and BCMA-ECD-2
For the molecule B1, the “IC50, inhibition of IFN-α-induced in vitro differentiation of B cells into plasma cells” value in experiment [1] turned out to be 1.9 nM. In addition, the “IC50 (nM), inhibition of the activity of type I interferons (IFN-β, HEK-Blue IFN-α/β cells)” value in experiment [2] is 1.64 nM. For the same molecule, the “EC50 relative to that of telitacicept” value in experiment [3] turned out to be 0.333 ratio. In experiment [4], this molecule showed an Emax of 2.8 nM.

B2: B805201 (other)
heavy: EVQLVQSGAEVKKPGESLKISCKGSGYIFTNYWIAWVRQMPGKGLESMGIIYPGDSDIRYSPSFQGQVTISADKSITTAYLQWSSLKASDTAMYYCARHDIEGFDYWGRGTLVTVSSASTKGPSVFPLAPSSKSTSGGTAALGCLVKDYFPEPVTVSWNSGALTSGVHTFPAVLQSSGLYSLSSVVTVPSSSLGTQTYICNVNHKPSNTKVDKRVEPKSCDKTHTCPPCPAPEFEGGPSVFLFPPKPKDTLMISRTPEVTCVVVDVSHEDPEVKFNWYVDGVEVHNAKTKPREEQYNSTYRVVSVLTVLHQDWLNGKEYKCKVSNKALPASIEKTISKAKGQPREPQVYTLPPSRDELTKNQVSLTCLVKGFYPSDIAVEWESNGQPENNYKTTPPVLDSDGSFFLYSKLTVDKSRWQQGNVFSCSVMHEALHNHYTQKSLSLSPGKGGGGSGGGGSGGGGSSTSCREEQGEFYDHLLRDCISCASICGQHPKQCAAFCE
light: EIVLTQSPGTLSLSPGERATLSCRASQSVSSSFFAWYQQKPGQAPRLLIYGASSRATGIPDRLSGSGSGTDFTLTITRLEPEDFAVYYCQQYDSSAITFGQGTRLEIKRTVAAPSVFIFPPSDEQLKSGTASVVCLLNNFYPREAKVQWKVDNALQSGNSQESVTEQDSKDSTYSLSSTLTLSKADYEKHKVYACEVTHQGLSSPVTKSFNRGEC
notes: Anifrolumab with TACI-19-16 at the C-terminus of the heavy chain; also called B80521
As to B2, the “IC50, inhibition of IFN-α-induced in vitro differentiation of B cells into plasma cells” value in experiment [1] amounted to 6.21 nM. The “IC50 (nM), inhibition of the activity of type I interferons (IFN-β, HEK-Blue IFN-α/β cells)” value in experiment [2] is 1.63 nM. Further, in experiment [5], the “Flow cytometry proliferating B cell proportion (%), mean, BAFF-induced, drug at 10 nM” value came out at 20.4%; the “Flow cytometry proliferating B cell proportion (%), mean, BAFF-induced, drug at 100 nM” value worked out at 24.3%; the “Flow cytometry proliferating B cell proportion (%), mean, BAFF-induced, drug at 1000 nM” value stood at 15%. Moreover, the “EC50 relative to that of telitacicept” value in experiment [3] was found to be 0.333 ratio. The Emax in experiment [4] worked out at 2.85 nM.
